# FireProtDB (doi:10.1093/oxfordjournals.jbchem.a021544)
# B1: Lysozyme C, P61626 (parent)
# chain: MKALIVLGLVLLSVTVQGKVFERCELARTLKRLGMDGYRGISLANWMCLAKWESGYNTRATNYNAGDRSTDYGIFQINSRYWCNDGKTPGAVNACHLSCSALLQDNIADAVACAKRVVRDPQGIRAWVAWRNRCQNRDVRQYVQGCGV
# Variants of: B1
# Details: Homo sapiens; pH 2.67; Thermal; DSC; glycine 0.05 M; reversible: yes; structure 1LZ1; whole UniProt chain shown
Variant,Tm,heat capacity change of unfolding,unfolding enthalpy (calorimetric),unfolding enthalpy (van 't Hoff)
MKALIVLGLVLLSVTVQGKVFERCELARTLKRLGMDGYRGISLANWMCLAKWESGYNTRATNYNAGDRSTDYGTFQINSRYWCNDGKTPGAVNACHLSCSALLQDNIADAVACAKRVVRDPQGIRAWVAWRNRCQNRDVRQYVQGCGV [I74T],51.8 °C,1 kcal/mol/K,87.8 kcal/mol,90.9 kcal/mol

# Same assay, conditions: Homo sapiens; pH 2.7; 64.9 °C; Thermal; DSC; glycine 0.05 M; reversible: yes; structure 1LZ1; whole UniProt chain shown
Variant,ddG of mutation (higher = less stable),heat capacity change of unfolding
MKALIVLGLVLLSVTVQGKVFERCELARTLKRLGMDGYRGISLANWMCLAKWESGYNTRATNYNAGDRSTDYGTFQINSRYWCNDGKTPGAVNACHLSCSALLQDNIADAVACAKRVVRDPQGIRAWVAWRNRCQNRDVRQYVQGCGV [I74T],3.64 kcal/mol,1.24 kcal/mol/K

# Same assay, conditions: Homo sapiens; pH 2.7; Thermal; DSC; glycine 0.05 M; reversible: yes; structure 1LZ1; whole UniProt chain shown
Variant,Tm,"change of melting temperature, mutant - wild type (higher = more stable)",heat capacity change of unfolding,unfolding enthalpy (calorimetric),unfolding enthalpy (van 't Hoff)
MKALIVLGLVLLSVTVQGKVFERCELARTLKRLGMDGYRGISLANWMCLAKWESGYNTRATNYNAGDRSTDYGTFQINSRYWCNDGKTPGAVNACHLSCSALLQDNIADAVACAKRVVRDPQGIRAWVAWRNRCQNRDVRQYVQGCGV [I74T],52.4 °C,-12.5 °C,1.24 kcal/mol/K,102 kcal/mol,108 kcal/mol

# Same assay, conditions: Homo sapiens; pH 2.98; Thermal; DSC; glycine 0.05 M; reversible: yes; structure 1LZ1; whole UniProt chain shown
Variant,Tm,heat capacity change of unfolding,unfolding enthalpy (calorimetric),unfolding enthalpy (van 't Hoff)
MKALIVLGLVLLSVTVQGKVFERCELARTLKRLGMDGYRGISLANWMCLAKWESGYNTRATNYNAGDRSTDYGTFQINSRYWCNDGKTPGAVNACHLSCSALLQDNIADAVACAKRVVRDPQGIRAWVAWRNRCQNRDVRQYVQGCGV [I74T],58 °C,1.2 kcal/mol/K,93.3 kcal/mol,102 kcal/mol

# Same assay, conditions: Homo sapiens; pH 3.11; Thermal; DSC; glycine 0.05 M; reversible: yes; structure 1LZ1; whole UniProt chain shown
Variant,Tm,heat capacity change of unfolding,unfolding enthalpy (calorimetric),unfolding enthalpy (van 't Hoff)
MKALIVLGLVLLSVTVQGKVFERCELARTLKRLGMDGYRGISLANWMCLAKWESGYNTRATNYNAGDRSTDYGTFQINSRYWCNDGKTPGAVNACHLSCSALLQDNIADAVACAKRVVRDPQGIRAWVAWRNRCQNRDVRQYVQGCGV [I74T],60.5 °C,1.15 kcal/mol/K,97.6 kcal/mol,103 kcal/mol
